In US20110293526A1, “COMPOSITIONS AND METHODS TO MODULATE HAIR GROWTH” (University of Southern California, priority 2008, published 2011):

B1: human BMP4: Recombinant human BMP4 protein obtained from R&D Systems (protein, UniProt P12644 293-408, looked up)
Bone morphogenetic protein 4: SPKHHSQRARKKNKNCRRHSLYVDFSDVGWNDWIVAPPGYQAFYCHGDCPFPLADHLNSTNHAIVQTLVNSVNSSIPKACCVPTELSAISMLYLDEYDKVVLKNYQEMVVEGCGCR

How the values were obtained:
[1] = DMSO; cited from earlier work
[2] = in published reports; cited from earlier work
competent telogen skin = assay: Protein administration experiment: human BMP4-soaked beads implanted into competent telogen skin ahead of an anagen-spreading wave; format: in vivo, mice; conditions: for propagation of the anagen-spreading (hair propagation) wave around the beads: beads soaked in human BMP4 1 mg per ml, implanted in competent telogen skin of adult mice, protein replenished every 24 h, twelve days later, versus control BSA/albumin beads
Description: Intracutaneous administration of exogenous protein was performed as follows. Affinity chromatography Affi-gel blue gel beads were obtained from Biorad. Beads were washed in 1×PBS, followed by drying. The beads were then re-suspended in 5 μl protein solution, either control (BSA 1 mg ml^−1) or experimental (human BMP4 1 mg per ml), at 4° C. for 30 min. Recombinant human BMP4 protein was obtained from R&D Systems. Reconstitution of the protein was performed in 4 mM HCl in 0.2% BSA as per the manufacturer's guidelines. Approximately 100 beads were introduced to the competent telogen skin of adult mice by means of a single puncture wound to the skin made by a 30 g syringe (insulin syringe). To replenish proteins, subsequent doses of 1.5 μl protein solution were microinjected to the site of the bead implantation every 24 h by means of a glass micro-needle until the tissue was harvested. After the anagen-spreading wave was noted to pass beyond the bead implantation sites (1 week in the case of FIGS. 2g, h), the skin was collected and inverted for photography. This allows the study of the anagen-wave-spreading dynamics around the control and human BMP4 beads.
Finally, it was tested whether a direct local delivery of BMP protein can convert competent telogen status to refractory in normal mice. Human-BMP4-soaked beads were implanted into competent telogen skin ahead of an anagen-spreading wave (see Methods in Botchkarev et al. (2001) FASEB J. 15:2205-14). […] Thus, the level of BMP activity can indeed explain the functional status (refractory versus competent) of a skin region.

Molecule	solubility [1]	toxicity [2]	propagation of the anagen-spreading (hair propagation) wave around the beads (competent telogen skin)	propagation of the anagen-spreading (hair propagation) wave around the beads (competent telogen skin; listed as Human-BMP4)	propagation of the anagen-spreading (hair propagation) wave around the beads (competent telogen skin; listed as hBMP4)	status of treated skin and hair regeneration after intracutaneous delivery (competent telogen skin; delivered intracutaneously via single glass microneedle during competent telogen phase)
c1cc(-c2cnn3cc(-c4ccc(OCCN5CCCCC5)cc4)cnc23)ccn1 [Dorsomorphin]	soluble in DMSO	low toxicity				
B1			prevented the propagation of the wave around the beads	caused hair propagation wave (solid arrow) to go around them, creating a new telogen domain	caused hair propagation wave (solid arrowed curve) to go around them, creating a new telogen domain	rendered treated skin refractory and prevented hair regeneration
